This is an account of results in publication PMC5225881, “Open and compressed conformations of Francisella tularensis ClpP” (Proteins, 2016).

Several values for one entry are separate records, joined by “and”; a condition that tells them apart may be missing. Identical values can stand only once.

The data set concerns the molecule itself. Nature of the data set: native gel or EMSA; purified sample applied to a native gel; conditions not given. In general terms: Mobility shift assays separate free from complexed probe on a gel.

B1: Francisella tularensis caseinolytic protease catalytic subunit P (ClpP) (enzyme)
chain: not shown
notes: also called FtClpP; FtClpP:I; copies: 14
Turning to B1, the stoichiometry N (in general, the number of molecules, sites or subunits per partner or assembly) is 7 and 14.
